Earlier results in US20260265208A1, “TETRALINE, PHENYLCYCLOBUTANE AND PHENYLCYCLOPENTANE ANALOGS AS RXFP1 AGONISTS” (BRISTOL-MYERS SQUIBB COMPANY, priority 2021, published 2026).

Settings: intravenous (IV) formulation; cited from earlier work

## Serelaxin
  first-phase pharmacokinetic half-life: 5.4 min
